# Measurements: patent US20190241648A1 (STATEN BIOTECHNOLOGY B V, published 2019)
# Ends that are not written are not given here.
# B1: Llama antibody 5E5 (antibody, V domains shown)
# VH: QLQLVESGGGLVQPGGSLRLSCAASGFTFGTYSMRWVRQVPRKALEWVSSISTDGGGTAYRDSVKGRFTISRDNAKNTLYLQMNNLKPEDTAIYYCVIAGYSDWGQGTQVTVSS
# VL: ATMLTQSPGSLSVVPGESASISCKTSQGLVHSDGKTYFYWFLQKPGQSPQQLIYQVSNRASGVPDRFTGSGSGTDFTLKISGVKAEDAGVYYCAQGTYYPHTFGSGTRLEIK
# notes: detected with goat anti-human IgG (Fc); also called mAb 5E5
# How the values were obtained:
# Test in all cases: cyclic peptide substitution array
# ApoC3 peptide K60N = target: T1, ApoC3 peptide K60N (human, cyclic (thioether))
# T1 peptide: DNFSEFWDLDPEV
# In short: (§1)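 Peptide microarrays incubated with antibody samples, then stained with goat anti-human IgG (Fc) DyLight680 and anti-HA DyLight800 control antibodies, scanned at intensity 7/7 (red/green). Secondary-only pre-stain checked background binding; framing HA peptides served as quality control; substitution effects read as changes in spot intensity.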
# ApoC3 peptide P69C = target: T2, ApoC3 peptide P69C (human, thioether (positions not given here); not fully specified (bridges); also: thioether from modified N-terminus to C-terminal Cys (Cys not in chain))
# T2 peptide: DKFSEFWDLDCEV
# In short: as §1
# ApoC3 peptide F61S = target: T3, ApoC3 peptide F61S (human, cyclic (thioether))
# T3 peptide: DKSSEFWDLDPEV
# In short: as §1
# ApoC3 peptide F64Y = target: T4, ApoC3 peptide F64Y (human, thioether (positions not given here); not fully specified (bridges); also: cyclic (thioether), positions not given here)
# T4 peptide: DKFSEYWDLDPEV
# In short: as §1
# ApoC3 peptide V71G = target: T5, ApoC3 peptide V71G (human, thioether (positions not given here); also: cyclic (thioether), ring places not given here)
# T5 peptide: DKFSEFWDLDPEG
# In short: as §1
# ApoC3 peptide E63D = target: T6, ApoC3 peptide E63D (human, not fully specified; cyclic (thioether))
# T6 peptide: DKFSDFWDLDPEV
# In short: as §1
# ApoC3 peptide D59T = target: T7, ApoC3 peptide D59T (human, thioether (positions not given here); not fully specified (C-terminus, bridges); also: cyclised via thioether between a C-terminal Cys and a modified N-terminus, the Cys and the N-terminal …)
# T7 peptide: TKFSEFWDLDPEV
# In short: as §1
# ApoC3 peptide D59V = target: T8, ApoC3 peptide D59V (human, thioether (positions not given here); not fully specified (C-terminus, bridges); also: cyclised via thioether between a C-terminal Cys and a modified N-terminus, the Cys and the N-terminal …)
# T8 peptide: VKFSEFWDLDPEV
# In short: as §1
# ApoC3 peptide S62K = target: T9, ApoC3 peptide S62K (human, thioether (positions not given here); also: cyclic (thioether), ring places not given here)
# T9 peptide: DKFKEFWDLDPEV
# In short: as §1
# ApoC3 peptide V71K = target: T10, ApoC3 peptide V71K (human, thioether (positions not given here); also: cyclic (thioether), ring places not given here)
# T10 peptide: DKFSEFWDLDPEK
# In short: as §1
# ApoC3 peptide D59K = target: T11, ApoC3 peptide D59K (human, thioether (positions not given here); not fully specified (C-terminus, bridges))
# T11 peptide: KKFSEFWDLDPEV
# In short: as §1
# ApoC3 peptide E63T = target: T12, ApoC3 peptide E63T (human, cyclic (thioether))
# T12 peptide: DKFSTFWDLDPEV
# In short: as §1
# ApoC3 peptide F64P = target: T13, ApoC3 peptide F64P (human, thioether (positions not given here); not fully specified (bridges); also: cyclic (thioether), positions not given here)
# T13 peptide: DKFSEPWDLDPEV
# In short: as §1
# ApoC3 peptide F61E = target: T14, ApoC3 peptide F61E (human, cyclic (thioether))
# T14 peptide: DKESEFWDLDPEV
# In short: as §1
# ApoC3 peptide K60P = target: T15, ApoC3 peptide K60P (human, cyclic (thioether))
# T15 peptide: DPFSEFWDLDPEV
# In short: as §1
# ApoC3 peptide E70D = target: T16, ApoC3 peptide E70D (human, cyclic (thioether))
# T16 peptide: DKFSEFWDLDPDV
# In short: as §1
# ApoC3 peptide E70C = target: T17, ApoC3 peptide E70C (human, cyclic (thioether))
# T17 peptide: DKFSEFWDLDPCV
# In short: as §1
# ApoC3 peptide W65S = target: T18, ApoC3 peptide W65S (human, cyclic (thioether))
# T18 peptide: DKFSEFSDLDPEV
# In short: as §1
# ApoC3 peptide D68H = target: T19, ApoC3 peptide D68H (human, cyclic (thioether))
# T19 peptide: DKFSEFWDLHPEV
# In short: as §1
# ApoC3 peptide E70P = target: T20, ApoC3 peptide E70P (human, cyclic (thioether))
# T20 peptide: DKFSEFWDLDPPV
# In short: as §1
# ApoC3 peptide V71I = target: T21, ApoC3 peptide V71I (human, thioether (positions not given here); also: cyclic (thioether), ring places not given here)
# T21 peptide: DKFSEFWDLDPEI
# In short: as §1
# ApoC3 peptide K60S = target: T22, ApoC3 peptide K60S (human, cyclic (thioether))
# T22 peptide: DSFSEFWDLDPEV
# In short: as §1
# ApoC3 peptide W65D = target: T23, ApoC3 peptide W65D (human, not fully specified; cyclic (thioether))
# T23 peptide: DKFSEFDDLDPEV
# In short: as §1
# ApoC3 peptide L67G = target: T24, ApoC3 peptide L67G (human, thioether (positions not given here); not fully specified (bridges); also: thioether between a C-terminal Cys side chain and a modified N-terminus, the Cys is not in the chain)
# T24 peptide: DKFSEFWDGDPEV
# In short: as §1
# ApoC3 peptide L67K = target: T25, ApoC3 peptide L67K (human, thioether (positions not given here); not fully specified (bridges); also: thioether between a C-terminal Cys side chain and a modified N-terminus, the Cys is not in the chain)
# T25 peptide: DKFSEFWDKDPEV
# In short: as §1
# ApoC3 peptide E63I = target: T26, ApoC3 peptide E63I (human, cyclic (thioether))
# T26 peptide: DKFSIFWDLDPEV
# In short: as §1
# ApoC3 peptide E70T = target: T27, ApoC3 peptide E70T (human, cyclic (thioether))
# T27 peptide: DKFSEFWDLDPTV
# In short: as §1
# ApoC3 peptide D59E = target: T28, ApoC3 peptide D59E (human, thioether (positions not given here); not fully specified (C-terminus, bridges))
# T28 peptide: EKFSEFWDLDPEV
# In short: as §1
# ApoC3 peptide E70W = target: T29, ApoC3 peptide E70W (human, cyclic (thioether))
# T29 peptide: DKFSEFWDLDPWV
# In short: as §1
binder,measurement,setting,value
B1,% of binding to wild-type peptide,ApoC3 peptide K60N,153%
same,% of binding to wild-type peptide,ApoC3 peptide P69C,3.72%
same,% of binding to wild-type peptide,ApoC3 peptide F61S,22.6%
same,% of binding to wild-type peptide,ApoC3 peptide F64Y,118%
same,% of binding to wild-type peptide,ApoC3 peptide V71G,91.9%
same,% of binding to wild-type peptide,ApoC3 peptide E63D,29.9%
same,% of binding to wild-type peptide,ApoC3 peptide D59T,94.9%
same,% of binding to wild-type peptide,ApoC3 peptide D59V,43.3%
same,% of binding to wild-type peptide,ApoC3 peptide S62K,4.05%
same,% of binding to wild-type peptide,ApoC3 peptide V71K,91.1%
same,% of binding to wild-type peptide,ApoC3 peptide D59K,30.6%
same,% of binding to wild-type peptide,ApoC3 peptide E63T,0%
same,% of binding to wild-type peptide,ApoC3 peptide F64P,528%
same,% of binding to wild-type peptide,ApoC3 peptide F61E,180%
same,% of binding to wild-type peptide,ApoC3 peptide K60P,205%
same,% of binding to wild-type peptide,ApoC3 peptide E70D,82.9%
same,% of binding to wild-type peptide,ApoC3 peptide E70C,27.1%
same,% of binding to wild-type peptide,ApoC3 peptide W65S,0%
same,% of binding to wild-type peptide,ApoC3 peptide D68H,0%
same,% of binding to wild-type peptide,ApoC3 peptide E70P,55.2%
same,% of binding to wild-type peptide,ApoC3 peptide V71I,66%
same,% of binding to wild-type peptide,ApoC3 peptide K60S,174%
same,% of binding to wild-type peptide,ApoC3 peptide W65D,0%
same,% of binding to wild-type peptide,ApoC3 peptide L67G,35.2%
same,% of binding to wild-type peptide,ApoC3 peptide L67K,45.6%
same,% of binding to wild-type peptide,ApoC3 peptide E63I,0%
same,% of binding to wild-type peptide,ApoC3 peptide E70T,83%
same,% of binding to wild-type peptide,ApoC3 peptide D59E,128%
same,% of binding to wild-type peptide,ApoC3 peptide E70W,35.4%
